According to patent US20120321699A1:
pEC50, pKd: −log10 of the molar value.

Legend:
HIV-1 Env gp41 (HIV-1) = assay: Luminex bead assay
[1] = molecular target: gp120 (Table 2, strain not given) (HIV-1); assay: Luminex bead assay
A244 gD- gp120 (HIV-1) = assay: SPR
[2] = molecular target: Env of HIV-1 7165.18.N160K (HIV-1); assay: cell-based or functional assay
[3] = molecular target: Env of HIV-1 JRCSF.N160K (HIV-1) (UniProt P20871); assay: cell-based or functional assay
[4] = molecular target: Env of HIV-1 JRFL.E168K (HIV-1); assay: cell-based or functional assay
[5] = molecular target: Env of HIV-1 JRFL.N160K.E168K (HIV-1); assay: cell-based or functional assay
[6] = molecular target: Env of HIV-1 Q23.17.N160K (HIV-1); assay: cell-based or functional assay
[7] = molecular target: Env of HIV-1 clade A isolate Q23.17 (HIV-1); assay: cell-based or functional assay
[8] = molecular target: Env of HIV-1 clade B isolate 7165.18 (HIV-1); assay: cell-based or functional assay
[9] = molecular target: Env of HIV-1 clade B isolate JRFL (virus) (HIV-1); assay: cell-based or functional assay
CM 243 gp120 (HIV-1) = assay: ELISA on monomeric envelope
[10] = molecular target: HV00046 (902114 B2 140C) (HIV-1); assay: ELISA on monomeric envelope
[11] = molecular target: Influenza HA (Wisconsin) (influenza virus); assay: Luminex assay, antibody 50 µg/ml
Histone autoantigen [12] = assay: Athena assay, mAb 25 ug/ml; positive >50
Jo 1 autoantigen [13] = assay: Athena assay, mAb 25 ug/ml; positive >50
RNP autoantigen [14] = assay: Athena assay, mAb 25 ug/ml; positive >50
SSA autoantigen [15] = assay: Athena assay, mAb 25 ug/ml; positive >50
SSB autoantigen [16] = assay: Athena assay, mAb 25 ug/ml; positive >50
Scl 70 autoantigen [17] = assay: Athena assay, mAb 25 ug/ml; positive >50
Sm autoantigen [18] = assay: Athena assay, mAb 25 ug/ml; positive >50
centromere B autoantigen [19] = assay: Athena assay, mAb 25 ug/ml; positive >50
Histone autoantigen [20] = assay: Athena assay, mAb 50 ug/ml; positive >50
Jo 1 autoantigen [21] = assay: Athena assay, mAb 50 ug/ml; positive >50
RNP autoantigen [22] = assay: Athena assay, mAb 50 ug/ml; positive >50
SSA autoantigen [23] = assay: Athena assay, mAb 50 ug/ml; positive >50
SSB autoantigen [24] = assay: Athena assay, mAb 50 ug/ml; positive >50
Scl 70 autoantigen [25] = assay: Athena assay, mAb 50 ug/ml; positive >50
Sm autoantigen [26] = assay: Athena assay, mAb 50 ug/ml; positive >50
centromere B autoantigen [27] = assay: Athena assay, mAb 50 ug/ml; positive >50
Histone autoantigen [28] = assay: Athena assay, mAb 12.5 ug/ml; positive >50
Jo 1 autoantigen [29] = assay: Athena assay, mAb 12.5 ug/ml; positive >50
RNP autoantigen [30] = assay: Athena assay, mAb 12.5 ug/ml; positive >50
SSA autoantigen [31] = assay: Athena assay, mAb 12.5 ug/ml; positive >50
SSB autoantigen [32] = assay: Athena assay, mAb 12.5 ug/ml; positive >50
Scl 70 autoantigen [33] = assay: Athena assay, mAb 12.5 ug/ml; positive >50
Sm autoantigen [34] = assay: Athena assay, mAb 12.5 ug/ml; positive >50
centromere B autoantigen [35] = assay: Athena assay, mAb 12.5 ug/ml; positive >50
Histone autoantigen [36] = assay: Athena assay, mAb 6.25 ug/ml; positive >50
Jo 1 autoantigen [37] = assay: Athena assay, mAb 6.25 ug/ml; positive >50
RNP autoantigen [38] = assay: Athena assay, mAb 6.25 ug/ml; positive >50
SSA autoantigen [39] = assay: Athena assay, mAb 6.25 ug/ml; positive >50
SSB autoantigen [40] = assay: Athena assay, mAb 6.25 ug/ml; positive >50
Scl 70 autoantigen [41] = assay: Athena assay, mAb 6.25 ug/ml; positive >50
Sm autoantigen [42] = assay: Athena assay, mAb 6.25 ug/ml; positive >50
centromere B autoantigen [43] = assay: Athena assay, mAb 6.25 ug/ml; positive >50
[44] = molecular target: A244gD+ gp120 (herpes simplex virus; HIV-1); assay: SPR
[45] = molecular target: HV00043 (63521 TC21 140C) (HIV-1); assay: SPR
[46] = molecular target: HV00044 (6240 TZ5 140C) (HIV-1); assay: SPR
[47] = molecular target: Env of HIV-1 clade B isolate JR-CSF (HIV-1) (UniProt P20871); assay: cell-based or functional assay
HCV E2 (HCV) = assay: Luminex assay, antibody 50 µg/ml

2F5 (antibody)
Reactivity in Luminex Units (Luminex Units) (HIV-1 Env gp41 (HIV-1)): 32700 | Reactivity in Luminex Units (Luminex Units) [1]: 9240

CH01 (antibody)
pKd (A244 gD- gp120 (HIV-1)): 6.47 | IC50 ug/ml (virus neutralization) [2]: > 50 µg/mL | IC80 ug/ml (virus neutralization) [2]: > 50 µg/mL | IC50 ug/ml (virus neutralization) [3]: > 50 µg/mL | IC80 ug/ml (virus neutralization) [3]: > 50 µg/mL | IC50 ug/ml (virus neutralization) [4]: 0.044 µg/mL | IC80 ug/ml (virus neutralization) [4]: 0.382 µg/mL | IC50 ug/ml (virus neutralization) [5]: > 50 µg/mL | IC80 ug/ml (virus neutralization) [5]: > 50 µg/mL | IC50 ug/ml (virus neutralization) [6]: > 50 µg/mL | IC80 ug/ml (virus neutralization) [6]: > 50 µg/mL | IC50 ug/ml (virus neutralization) [7]: 0.014 µg/mL | IC80 ug/ml (virus neutralization) [7]: 0.035 µg/mL | IC50 ug/ml (virus neutralization) [8]: 5.82 µg/mL | IC80 ug/ml (virus neutralization) [8]: > 50 µg/mL | IC50 ug/ml (virus neutralization) [9]: > 50 µg/mL | IC80 ug/ml (virus neutralization) [9]: > 50 µg/mL | pEC50 (CM 243 gp120 (HIV-1)): 4.90 | pEC50 [10]: 4.20 | background substracted RFUs [11]: 0 RFU | Autoreactivity (Athena) (Histone autoantigen [12]): 17.5 | Autoreactivity (Athena) (Jo 1 autoantigen [13]): 2.5 | Autoreactivity (Athena) (RNP autoantigen [14]): 5.5 | Autoreactivity (Athena) (SSA autoantigen [15]): 6.5 | Autoreactivity (Athena) (SSB autoantigen [16]): 5.5 | Autoreactivity (Athena) (Scl 70 autoantigen [17]): 3 | Autoreactivity (Athena) (Sm autoantigen [18]): 4 | Autoreactivity (Athena) (centromere B autoantigen [19]): 14 | Autoreactivity (Athena) (Histone autoantigen [20]): 26 | Autoreactivity (Athena) (Jo 1 autoantigen [21]): 3.5 | Autoreactivity (Athena) (RNP autoantigen [22]): 8 | Autoreactivity (Athena) (SSA autoantigen [23]): 8 | Autoreactivity (Athena) (SSB autoantigen [24]): 5.5 | Autoreactivity (Athena) (Scl 70 autoantigen [25]): 4 | Autoreactivity (Athena) (Sm autoantigen [26]): 4 | Autoreactivity (Athena) (centromere B autoantigen [27]): 22 | Autoreactivity (Athena) (Histone autoantigen [28]): 13.5 | Autoreactivity (Athena) (Jo 1 autoantigen [29]): 2 | Autoreactivity (Athena) (RNP autoantigen [30]): 4.5 | Autoreactivity (Athena) (SSA autoantigen [31]): 5 | Autoreactivity (Athena) (SSB autoantigen [32]): 5 | Autoreactivity (Athena) (Scl 70 autoantigen [33]): 2 | Autoreactivity (Athena) (Sm autoantigen [34]): 3 | Autoreactivity (Athena) (centromere B autoantigen [35]): 10 | Autoreactivity (Athena) (Histone autoantigen [36]): 10 | Autoreactivity (Athena) (Jo 1 autoantigen [37]): 2 | Autoreactivity (Athena) (RNP autoantigen [38]): 4 | Autoreactivity (Athena) (SSA autoantigen [39]): 5.5 | Autoreactivity (Athena) (SSB autoantigen [40]): 5.5 | Autoreactivity (Athena) (Scl 70 autoantigen [41]): 1.5 | Autoreactivity (Athena) (Sm autoantigen [42]): 2.5 | Autoreactivity (Athena) (centromere B autoantigen [43]): 7

PG9 (antibody)
pKd [44]: 8.32 | pKd [45]: 9.12 | pKd [46]: 6.68 | IC50 ug/ml (virus neutralization) [2]: > 50 µg/mL | IC80 ug/ml (virus neutralization) [2]: > 50 µg/mL | IC50 ug/ml (virus neutralization) [3]: > 50 µg/mL | IC80 ug/ml (virus neutralization) [3]: > 50 µg/mL | IC50 ug/ml (virus neutralization) [4]: 0.008 µg/mL | IC80 ug/ml (virus neutralization) [4]: 0.055 µg/mL | IC50 ug/ml (virus neutralization) [5]: > 50 µg/mL | IC80 ug/ml (virus neutralization) [5]: > 50 µg/mL | IC50 ug/ml (virus neutralization) [6]: > 50 µg/mL | IC80 ug/ml (virus neutralization) [6]: > 50 µg/mL | IC50 ug/ml (virus neutralization) [7]: 0.002 µg/mL | IC80 ug/ml (virus neutralization) [7]: 0.005 µg/mL | IC50 ug/ml (virus neutralization) [8]: > 50 µg/mL | IC80 ug/ml (virus neutralization) [8]: > 50 µg/mL | IC50 ug/ml (virus neutralization) [47]: 0.003 µg/mL | IC80 ug/ml (virus neutralization) [47]: 0.008 µg/mL | IC50 ug/ml (virus neutralization) [9]: > 50 µg/mL | IC80 ug/ml (virus neutralization) [9]: > 50 µg/mL | background substracted RFUs (HCV E2 (HCV)): 0 RFU | background substracted RFUs [11]: 0 RFU | Autoreactivity (Athena) (Histone autoantigen [12]): 9 | Autoreactivity (Athena) (Jo 1 autoantigen [13]): 2 | Autoreactivity (Athena) (RNP autoantigen [14]): 2 | Autoreactivity (Athena) (SSA autoantigen [15]): 5 | Autoreactivity (Athena) (SSB autoantigen [16]): 6 | Autoreactivity (Athena) (Scl 70 autoantigen [17]): 1 | Autoreactivity (Athena) (Sm autoantigen [18]): 3 | Autoreactivity (Athena) (centromere B autoantigen [19]): 5 | Autoreactivity (Athena) (Histone autoantigen [20]): 7 | Autoreactivity (Athena) (Jo 1 autoantigen [21]): 1 | Autoreactivity (Athena) (RNP autoantigen [22]): 3 | Autoreactivity (Athena) (SSA autoantigen [23]): 5 | Autoreactivity (Athena) (SSB autoantigen [24]): 5 | Autoreactivity (Athena) (Scl 70 autoantigen [25]): 2 | Autoreactivity (Athena) (Sm autoantigen [26]): 2 | Autoreactivity (Athena) (centromere B autoantigen [27]): 5 | Autoreactivity (Athena) (Histone autoantigen [28]): 6 | Autoreactivity (Athena) (Jo 1 autoantigen [29]): 2 | Autoreactivity (Athena) (RNP autoantigen [30]): 2 | Autoreactivity (Athena) (SSA autoantigen [31]): 5 | Autoreactivity (Athena) (SSB autoantigen [32]): 4 | Autoreactivity (Athena) (Scl 70 autoantigen [33]): 2 | Autoreactivity (Athena) (Sm autoantigen [34]): 3 | Autoreactivity (Athena) (centromere B autoantigen [35]): 4 | Autoreactivity (Athena) (Histone autoantigen [36]): 5 | Autoreactivity (Athena) (Jo 1 autoantigen [37]): 2 | Autoreactivity (Athena) (RNP autoantigen [38]): 3 | Autoreactivity (Athena) (SSA autoantigen [39]): 4 | Autoreactivity (Athena) (SSB autoantigen [40]): 4 | Autoreactivity (Athena) (Scl 70 autoantigen [41]): 2 | Autoreactivity (Athena) (Sm autoantigen [42]): 2 | Autoreactivity (Athena) (centromere B autoantigen [43]): 4
